The values that follow come from patent US20180127504A1 (ACADEMIA SINICA, published 2018).

B1: R2PC12 (scFv, V domains shown)
VH: QVNLRESGGGLVKPGGSLRLSCAASGFTFGSYTMNWVRQAPGKGLEWVASITSGSSYIFYTDSVKGRFTISRDNSRSSLFLQMNSLRAEDTAIYYCARGSASAFDIWGQGTMVTVSS
VL: DIQMTQSPSSLSASVGDRVTITCKASDDIINYLNWYQQKPGEAPKLLIYDASILETGVPSRFSGSGSGTDFTFTISSLQPEDIATYYCQQYDILPLTFGGGTKLEIK
notes: also called anti-VEGFR2 scFv phage clone 12
B2: R2PC8 (scFv, V domains shown)
VH: QVQLVQSGGGLVKPGGSLRLSCAASGFTFSSYSMSWVRQAPGKGLEWVSSISSSSSYIYYADSVKGRFTISRDNAKNSLYLQMNSLRAEDTAVYYCARSTDAFDIWGQGTMVTVSS
VL: DIVMTQSPSSLSASVGDRVTITCRASQRISNYLNWYQHKSGEDPKLLIYAASSLQSGVPSRFSGSGSGTDFTLTISSLQPEDFATYYCQQYDRYPPTFGQGTKLEIK
notes: also called anti-VEGFR2 scFv phage clone 8
B3: R2PC28 (scFv, V domains shown)
VH: EVQLVESGGALVQPGGSLRLSCVGSEFTFSHYNLHWVRQAPGKGLEWLAVISDDGRNKYYGDSVKGRFTISRDNSKNTLYLQMNGLRAEDTAVYYCARVPTVWRGGVYDIWGQGTMVTVSS
VL: EIVLTQSPATLSLSPGERATLSCRASQSVGSYLAWYQQRPGQPPRLLIYDASNRATGVAARFSGSGSGTDFTLTIDSLEAEDAATYYCHQSSSLPRTFGQGTKLEIK
notes: also called anti-VEGFR2 scFv phage clone 28
B4: R2PC29 (scFv, V domains shown)
VH: QVQLQQSGAEMKKSGSSVKVSCKASGGNFISKGISWVRQAPGQGLEWMGGIIPLFGTGNYAQKFQGRVTITADESTTTVYLQLTSLTPEDTAMYFCATADVDYSDSLEAFDMWGQGTMVTVSS
VL: DIVMTQSPSSLSASVGDRVTITCRASQSINNYLNWYQQKPGKAPNLLIYGASSLQSGVPSRFRGSGSGTDFTLTISSLQPEDFATYYCQQSYSTPLFGQGTKLEIK
notes: also called anti-VEGFR2 scFv phage clone 29
B5: R2S12 (scFv, V domains shown)
VH: B1 VH
VL: B1 VL
notes: Soluble scFv made in E. coli HB2151 from phage clone R2PC12, with E tag; also called soluble anti-VEGFR2 scFv from phage clone R2PC12
B6: R2S8 (scFv, V domains shown)
VH: B2 VH
VL: B2 VL
notes: also called soluble anti-VEGFR2 scFv from phage clone R2PC8
B7: R2S28 (scFv, V domains shown)
VH: B3 VH
VL: B3 VL
notes: also called soluble anti-VEGFR2 scFv from phage clone R2PC28
B8: R2S29 (scFv, V domains shown)
VH: B4 VH
VL: B4 VL
notes: also called soluble anti-VEGFR2 scFv from phage clone R2PC29

Changes are numbered by the printed parent chain.

The target of the first test is T1, c-Met-Fc control protein (UniProt P08581 25-932, limits assumed).
T1 construct: Bought control protein; also called Met-Fc (R&D); c-Met-Fe; not shown: Fc part of the bought fusion protein; not described
T1 sequence (P08581 25-932 limits assumed): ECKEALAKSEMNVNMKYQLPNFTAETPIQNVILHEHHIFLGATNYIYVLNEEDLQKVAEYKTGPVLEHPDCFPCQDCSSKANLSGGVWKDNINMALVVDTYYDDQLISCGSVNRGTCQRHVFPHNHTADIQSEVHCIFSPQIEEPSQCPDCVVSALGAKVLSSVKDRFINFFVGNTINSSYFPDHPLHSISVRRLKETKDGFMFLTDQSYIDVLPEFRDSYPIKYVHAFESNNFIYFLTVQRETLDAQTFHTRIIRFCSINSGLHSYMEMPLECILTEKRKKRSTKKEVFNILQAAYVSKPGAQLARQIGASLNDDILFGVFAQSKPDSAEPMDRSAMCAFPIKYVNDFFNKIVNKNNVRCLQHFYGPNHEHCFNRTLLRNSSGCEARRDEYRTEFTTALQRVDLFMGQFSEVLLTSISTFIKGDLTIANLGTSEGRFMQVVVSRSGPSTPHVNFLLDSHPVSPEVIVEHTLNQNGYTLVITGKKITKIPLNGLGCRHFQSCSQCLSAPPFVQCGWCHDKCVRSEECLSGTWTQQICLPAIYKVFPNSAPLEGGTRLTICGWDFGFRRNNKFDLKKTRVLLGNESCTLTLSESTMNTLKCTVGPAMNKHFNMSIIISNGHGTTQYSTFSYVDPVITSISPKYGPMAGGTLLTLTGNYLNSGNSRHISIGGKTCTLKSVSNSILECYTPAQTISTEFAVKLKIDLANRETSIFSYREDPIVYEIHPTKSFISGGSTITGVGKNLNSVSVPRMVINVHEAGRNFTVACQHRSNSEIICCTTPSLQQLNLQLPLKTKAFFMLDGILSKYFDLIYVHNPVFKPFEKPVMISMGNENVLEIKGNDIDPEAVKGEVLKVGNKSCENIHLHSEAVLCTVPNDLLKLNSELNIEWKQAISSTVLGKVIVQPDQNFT
The test can be described thus: phage ELISA on coated MET-Fc, anti-M13-HRP detection. As for the experimental part:
The selected phages were further examined by ELISA screening. The 96-well plates were coated with […] of VEGFR2-Fc, Met-Fc (R&D), or BSA (Sigma) protein in 0.1 M sodium bicarbonate overnight at 4° C. After blocking with 1% BSA in PBS (w/v) for 2 hr at room temperature, 70-randomly selected phage clones were added to the plates at a 1:2 dilution in 1% BSA, and incubated for 1 hr at room temperature. Following washes with PBST, the plates were incubated with a 1:2000 dilution of horseradish peroxidase (HRP)-conjugated mouse anti-M13 phage antibody (GE) for 1 hr. After washing with PBST, the colorimetric reaction was developed with the peroxidase substrate ortho-phenylenediamine (OPD; Sigma) plus H₂O₂ for 15 min, and then terminated by the addition of 3 N HCl. The absorbance at 490 nm was determined using a microplate reader (SpectraMax, Molecular Devices). Plasmid DNA of positive clones were isolated and sequenced using the pCANTAB5 sequencing primer set.
(§1) After four rounds of affinity selection (biopanning), the titer of bound phage increased by as much as 3,455-fold (FIG. 1A).
In the case of B1, the binding result is listed as “no binding (tested: 1x10^9 cfu)”.
On the same count and under the same terms, in the case of B2 it was “no binding (tested: 1x10^9 cfu)”; in that of B3, “no binding (tested: 1x10^9 cfu)”; in that of B4, “no binding (tested: 1x10^9 cfu)”.

The target of the next test is T2, VEGFR2 on the cell surface of human umbilical vein endothelial cells (HUVEC) (human, UniProt P35968 20-1356).
T2 construct: Endogenous receptor of human cells; also called cell-surface VEGFR2; cellular VEGFR2
The test is described as follows: flow cytometry on HUVECs, 1x10^10 cfu phage, anti-M13 and PE-labelled secondary antibody. The method, then:
About 1×10⁴ HUVEC were incubated with the selected anti-VEGFR2 phage clones at 4° C. for 1 hour in FACS buffer (PBS containing 1% fetal bovine serum). After the cells were washed with FACS buffer, they were first incubated with mouse anti-M13 phage Ab for 1 hr at 4° C., and then with R-phycoerythrin-conjugated goat anti-mouse IgG (Jackson Immuno Research) for 30 min at 4° C. Flow cytometry was performed with a FACSCantoII (BD), and emission fluorescence intensity was measured with FACS Diva software (BD) to quantitatively compare binding affinities.
as §1
B1: the binding result is on record as “binds”.
For the molecule B2, the binding result is recorded as “binds”.
For B3, the binding result is recorded as “binds”.
With B4, the binding result is reported as “binds”.

The target of another test is T3, VEGFR2 on tumor vascular endothelium (frozen sections of human lung cancer specimens) (human, UniProt P35968).
T3 construct: endogenous, on CD31-positive tumor vascular endothelium in frozen tissue sections; also called human tumor vasculature
The test is described as follows: immunofluorescence on frozen sections of human lung cancer, scFv detected by anti-E tag and rhodamine secondary antibody, CD31 co-staining.
B5: the binding result is listed as “binds”.
For B6, the binding result was “binds”.
Take B7: the binding result was “binds”.
On to B8, for which the binding result is reported as “binds”.

The target in the next test is T4, VEGFR2(del2-3) (human, UniProt P35968 20-813).
T4 construct: Expressed on 293T cells; also called VEGFR2 with domains 2 and 3 deleted
The test is described as follows: immunofluorescent staining of transfected 293T cells.
For the molecule B5, the binding result is on record as “no binding”.
Consider B6, for which the binding result is listed as “no binding”.
As for B7, the binding result is listed as “binds”.

The target of a further test is T5, VEGFR2(1-7) (human, UniProt P35968 20-813).
T5 construct: Expressed on 293T cells; also called full-length extracellular region of VEGFR2, domains 1-7, Met1 to Leu813
Described as above.
For the molecule B5, the binding result is “binds”.
As for B6, the binding result is given as “binds”.
Same read-out and setting: in the case of B7 it was “binds”.

The next test deals with T6, VEGFR2(del3) (human, UniProt P35968 20-813).
T6 construct: Expressed on 293T cells; also called VEGFR2 with domain 3 deleted
The test is described as above.
Turning to B5, the binding result was “no binding”.
Turning to B6, the binding result was “no binding”.
For B7, the binding result is reported as “binds”.

Another test has as its target T7, VEGFR2(M1) (human, UniProt P35968 20-813).
T7 construct: Expressed on 293T cells; single substitutions derived from the printed replacement of the six-residue stretch; also called VEGFR2-M1 mutant protein
T7 chain: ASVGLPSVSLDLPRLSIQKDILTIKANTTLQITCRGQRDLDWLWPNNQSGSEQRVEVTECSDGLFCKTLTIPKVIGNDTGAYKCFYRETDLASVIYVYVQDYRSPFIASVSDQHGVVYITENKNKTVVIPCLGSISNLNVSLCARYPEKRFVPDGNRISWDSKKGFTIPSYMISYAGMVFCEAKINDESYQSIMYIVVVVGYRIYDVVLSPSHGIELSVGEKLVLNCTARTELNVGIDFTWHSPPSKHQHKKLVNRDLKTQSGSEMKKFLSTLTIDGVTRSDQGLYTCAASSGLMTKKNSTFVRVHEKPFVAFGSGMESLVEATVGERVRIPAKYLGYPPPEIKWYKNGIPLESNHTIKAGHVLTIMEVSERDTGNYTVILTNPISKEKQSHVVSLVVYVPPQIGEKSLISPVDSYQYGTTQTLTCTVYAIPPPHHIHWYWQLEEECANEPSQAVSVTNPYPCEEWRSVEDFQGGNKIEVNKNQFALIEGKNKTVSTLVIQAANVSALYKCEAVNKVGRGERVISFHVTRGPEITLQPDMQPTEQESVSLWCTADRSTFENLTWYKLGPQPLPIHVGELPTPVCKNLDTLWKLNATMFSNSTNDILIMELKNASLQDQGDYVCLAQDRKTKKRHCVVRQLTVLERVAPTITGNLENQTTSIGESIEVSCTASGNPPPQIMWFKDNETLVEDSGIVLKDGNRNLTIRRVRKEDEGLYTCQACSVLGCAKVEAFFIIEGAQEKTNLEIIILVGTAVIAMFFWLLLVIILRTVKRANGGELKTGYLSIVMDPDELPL
The test is described as above.
Consider B5, for which the binding result is reported as “no binding”.
For B6, the binding result is “no binding”.
Consider B7, for which the binding result is given as “binds”.

A further test has as its target T8, VEGFR2(M2) (human, UniProt P35968 20-813).
T8 construct: Expressed on 293T cells; single substitutions derived from the printed replacement of the seven-residue stretch
T8 chain: T7 chain with T240N, H242E, S243Y, P245S, T260P, Q261F, S262P, S264T, E265V, M266A
Described as above.
Consider B5, for which the binding result is given as “binds”.
As for B6, the binding result is listed as “binds”.
In the case of B7, the binding result is listed as “binds”.

The next test addresses T9, VEGFR2(2-7) (human, UniProt P35968 111-813).
T9 construct: also called domains 2-7, Ala111 to Leu813
The description is as above.
Regarding B5, the binding result is “binds”.
On to B6, for which the binding result is “binds”.
For B7, the binding result is on record as “no binding”.

The next test has as its target T10, VEGFR2(4-7) (human, UniProt P35968 321-813).
T10 construct: also called domains 4-7, Phe321 to Leu813
Described as above.
Turning to B5, the binding result is recorded as “no binding”.
On the same count and under the same terms, with B6 the entry was “no binding”; with B7, “no binding”.
